Assay results published in patent publication US20250188133A1, “CHIMERIC BACTERIOCINS AND METHOD FOR THE CONTROL OF PSEUDOMONAS” (priority 2022, published 2025).

Legend:
Assay type in all cases: cell-based
P. aeruginosa strains = assay: agar disc-diffusion assay, panel of 25 strains
How it was run: (§1)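 Bacteria grown overnight in CAA are normalized to OD595=1.0, diluted 100-fold and spread evenly on CAA agar plates. Paper discs carry 0.3-30 μg of chimeric pyocin, and zones of inhibition are examined after an overnight 37° C incubation.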

P. aeruginosa BI80 = assay: agar disc-diffusion assay; conditions: strain BI80; 0.3, 3 and 30 μg of protein spotted on discs on CAA agar lawn, overnight
How it was run: as §1

P. aeruginosa NCTC 13921 = assay: agar disc-diffusion assay; conditions: strain NCTC 13921; 0.3, 3 and 30 μg of protein spotted on discs on CAA agar lawn, overnight
How it was run: as §1

P. aeruginosa Pr335 = assay: agar disc-diffusion assay; conditions: strain Pr335; 0.3, 3 and 30 μg of protein spotted on discs on CAA agar lawn, overnight
How it was run: as §1

P. aeruginosa ATCC 19660 = assay: agar disc-diffusion assay; conditions: strain ATCC 19660; 0.3, 3 and 30 μg of protein spotted on discs on CAA agar lawn, overnight
How it was run: as §1

[1] = test system: P. aeruginosa Boston 41501 (ATCC 27853); assay: agar disc-diffusion assay; conditions: strain Boston; 0.3, 3 and 30 μg of protein spotted on discs on CAA agar lawn, overnight
How it was run: as §1

P. aeruginosa HP7 = assay: agar disc-diffusion assay; conditions: strain HP7; 0.3, 3 and 30 μg of protein spotted on discs on CAA agar lawn, overnight
How it was run: as §1

P. aeruginosa HP52 = assay: agar disc-diffusion assay; conditions: strain HP52; 0.3, 3 and 30 μg of protein spotted on discs on CAA agar lawn, overnight
How it was run: as §1

P. aeruginosa A19 = assay: agar disc-diffusion assay; conditions: strain A19; 0.3, 3 and 30 μg of protein spotted on discs on CAA agar lawn, overnight
How it was run: as §1

P. aeruginosa HP1 = assay: agar disc-diffusion assay; conditions: strain HP1; 0.3, 3 and 30 μg of protein spotted on discs on CAA agar lawn, overnight
How it was run: as §1

P. aeruginosa BL77 = assay: agar disc-diffusion assay; conditions: strain BL77; 0.3, 3 and 30 μg of protein spotted on discs on CAA agar lawn, overnight
How it was run: as §1

P. aeruginosa HP75 = assay: agar disc-diffusion assay; conditions: strain HP75; 0.3, 3 and 30 μg of protein spotted on discs on CAA agar lawn, overnight
How it was run: as §1

P. aeruginosa EY76 = assay: agar disc-diffusion assay; conditions: strain EY76; 0.3, 3 and 30 μg of protein spotted on discs on CAA agar lawn, overnight
How it was run: as §1

P. aeruginosa PAO1 = assay: agar disc-diffusion assay; conditions: strain PAO1; 0.3, 3 and 30 μg of protein spotted on discs on CAA agar lawn, overnight
How it was run: as §1

P. aeruginosa HP41 = assay: agar disc-diffusion assay; conditions: strain HP41; 0.3, 3 and 30 μg of protein spotted on discs on CAA agar lawn, overnight
How it was run: as §1

P. aeruginosa NCTC 13437 = assay: agar disc-diffusion assay; conditions: strain NCTC 13437; 0.3, 3 and 30 μg of protein spotted on discs on CAA agar lawn, overnight
How it was run: as §1

P. aeruginosa BR79 = assay: agar disc-diffusion assay; conditions: strain BR79; 0.3, 3 and 30 μg of protein spotted on discs on CAA agar lawn, overnight
How it was run: as §1

P. aeruginosa 13-18499 = assay: agar disc-diffusion assay; conditions: strain 13-18499; 0.3, 3 and 30 μg of protein spotted on discs on CAA agar lawn, overnight
How it was run: as §1

P. aeruginosa ATCC 29260 = assay: agar disc-diffusion assay; conditions: strain ATCC 29260; 0.3, 3 and 30 μg of protein spotted on discs on CAA agar lawn, overnight
How it was run: as §1

P. aeruginosa UR78 = assay: agar disc-diffusion assay; conditions: strain UR78; 0.3, 3 and 30 μg of protein spotted on discs on CAA agar lawn, overnight
How it was run: as §1

P. aeruginosa HP6 = assay: agar disc-diffusion assay; conditions: strain HP6; 0.3, 3 and 30 μg of protein spotted on discs on CAA agar lawn, overnight
How it was run: as §1

B1: S5-PmnH (protein)
chain: MSNDNEVPGSMVIVAQGPDDQYAYEVPPIDSAAVAGNMFGDLIQREIYLQKNIYYPVRSIFEQGTKEKKEINKKVSDQVDGLLKQITQGKREATRQERVDVMSAVLHKMESDLEGYKKTFTKGPFIDYEKQSSLSIYEAWVKIWEKNSWEERKKYPFQQLVRDELERAVAYYKQDSLSEAVKVLRQELNKQKALKEKEDLSQLERDYRTRKANLEMKVQSELDQAGSALPPLVSPTPEQWLERATRLVTQAIADKKQLQTTNNTLIKNSPTPLEKQKAIYNGELLVDEIASLQARLVKLNAETTRRRTEKELTPDEKAAYTDAVSFVSTANEQMLQKYGANLSKVAQDMQAEIAGKKVRSYAEAMATFEKISANPAMKLNALDTQAVVDALNALDKASFADNITRLGKAFGVVGKVVQAEAIREKTVSGFQTGDWKPLMLELEAMAVGTGAGILLATSMAFFFPVFASAAAGVVVVALMMAATAAYFDAAKVDEINNLILN
modifications: Chimeric S5-PmnH
inhibition on lawns of S5 producer strains HP6 and HP7 (P. aeruginosa strains; clinical isolates HP6 and HP7, S5 gave turbid zones with 3 μg and 30 μg): significantly larger and clearer than those formed by S5 | activity spectrum / profile in agar disc diffusion assay (P. aeruginosa strains; panel of 25 P. aeruginosa strains, in words): broadened activity spectrum in comparison to pyocin S5 | inhibition zones on lawns of S5-producing strains (P. aeruginosa strains; six pyocin S5 and immunity gene-positive strains (PA14, PAO1, HP6, HP7, ATCC 19660, NCTC 13921)): formed inhibition zones on the lawns of all six S5-producing strains | Activity in agar disc-diffusion assay (P. aeruginosa BI80): *** (activity detected with 0.3 μg of protein) | Activity in agar disc-diffusion assay (P. aeruginosa NCTC 13921): *** (activity detected with 0.3 μg of protein) | Activity in agar disc-diffusion assay (P. aeruginosa Pr335): *** (activity detected with 0.3 μg of protein) | Activity in agar disc-diffusion assay (P. aeruginosa ATCC 19660): ** (activity detected with 3 μg of protein) | Activity in agar disc-diffusion assay [1]: *** (activity detected with 0.3 μg of protein) | Activity in agar disc-diffusion assay (P. aeruginosa HP7): *** (activity detected with 0.3 μg of protein) | Activity in agar disc-diffusion assay (P. aeruginosa HP52): ** (activity detected with 3 μg of protein) | Activity in agar disc-diffusion assay (P. aeruginosa A19): *** (activity detected with 0.3 μg of protein) | Activity in agar disc-diffusion assay (P. aeruginosa HP1): *** (activity detected with 0.3 μg of protein) | Activity in agar disc-diffusion assay (P. aeruginosa BL77): ** (activity detected with 3 μg of protein) | Activity in agar disc-diffusion assay (P. aeruginosa HP75): ** (activity detected with 3 μg of protein) | Activity in agar disc-diffusion assay (P. aeruginosa EY76): *** (activity detected with 0.3 μg of protein) | Activity in agar disc-diffusion assay (P. aeruginosa PAO1): *** (activity detected with 0.3 μg of protein) | Activity in agar disc-diffusion assay (P. aeruginosa HP41): *** (activity detected with 0.3 μg of protein) | Activity in agar disc-diffusion assay (P. aeruginosa NCTC 13437): * (activity detected only with 30 μg of protein) | Activity in agar disc-diffusion assay (P. aeruginosa BR79): ** (activity detected with 3 μg of protein) | Activity in agar disc-diffusion assay (P. aeruginosa 13-18499): ** (activity detected with 3 μg of protein) | Activity in agar disc-diffusion assay (P. aeruginosa ATCC 29260): *** (activity detected with 0.3 μg of protein) | Activity in agar disc-diffusion assay (P. aeruginosa UR78): *** (activity detected with 0.3 μg of protein) | Activity in agar disc-diffusion assay (P. aeruginosa HP6): *** (activity detected with 0.3 μg of protein)
